Results from patent US20240052042A1 (Novartis, published 2024).

B1: WW03 (FabCys format) (Fab, V domains shown)
VH: QVQLLESGGGLVQPGGSLRLSCAASGFTFSSYWMNWVRQAPGKGLEWVSAISSDGSYTYYADSVKGRFTISRDNSKNTLYLQMNSLRAEDTAVYYCARDRYSMIYSYGAGAFDYWGQGTLVTVSS
VL: DIQMTQSPSSLSASVGDRVTITCRASQGISSYLAWYQQKPGKAPKLLIYTASTLQSGVPSRFSGSGSGTDFTLTISSLQPEDFATYYCMQSYEKPRTFGQGTKVEIK
notes: Monovalent FabCys
B2: WW03 (IgG format) (antibody, V domains shown)
VH: QVQLLESGGGLVQPGGSLRLSCAASGFTFSSYWMNWVRQAPGKGLEWVSAISSDGSYTYYADSVKGRFTISRDNSKNTLYLQMNSLRAEDTAVYYCARDRYSMIYSYGAGAFDYWGQGTLVTVSS
VL: DIQMTQSPSSLSASVGDRVTITCRASQGISSYLAWYQQKPGKAPKLLIYTASTLQSGVPSRFSGSGSGTDFTLTISSLQPEDFATYYCMQSYEKPRTFGQGTKVEIKR
notes: also called WW03_LALA

Assays:
[1] = target: T1, human NPR1 on CHO-K1 cells (human, UniProt P16066 33-1061); assay: cell-based or functional assay
T1 sequence: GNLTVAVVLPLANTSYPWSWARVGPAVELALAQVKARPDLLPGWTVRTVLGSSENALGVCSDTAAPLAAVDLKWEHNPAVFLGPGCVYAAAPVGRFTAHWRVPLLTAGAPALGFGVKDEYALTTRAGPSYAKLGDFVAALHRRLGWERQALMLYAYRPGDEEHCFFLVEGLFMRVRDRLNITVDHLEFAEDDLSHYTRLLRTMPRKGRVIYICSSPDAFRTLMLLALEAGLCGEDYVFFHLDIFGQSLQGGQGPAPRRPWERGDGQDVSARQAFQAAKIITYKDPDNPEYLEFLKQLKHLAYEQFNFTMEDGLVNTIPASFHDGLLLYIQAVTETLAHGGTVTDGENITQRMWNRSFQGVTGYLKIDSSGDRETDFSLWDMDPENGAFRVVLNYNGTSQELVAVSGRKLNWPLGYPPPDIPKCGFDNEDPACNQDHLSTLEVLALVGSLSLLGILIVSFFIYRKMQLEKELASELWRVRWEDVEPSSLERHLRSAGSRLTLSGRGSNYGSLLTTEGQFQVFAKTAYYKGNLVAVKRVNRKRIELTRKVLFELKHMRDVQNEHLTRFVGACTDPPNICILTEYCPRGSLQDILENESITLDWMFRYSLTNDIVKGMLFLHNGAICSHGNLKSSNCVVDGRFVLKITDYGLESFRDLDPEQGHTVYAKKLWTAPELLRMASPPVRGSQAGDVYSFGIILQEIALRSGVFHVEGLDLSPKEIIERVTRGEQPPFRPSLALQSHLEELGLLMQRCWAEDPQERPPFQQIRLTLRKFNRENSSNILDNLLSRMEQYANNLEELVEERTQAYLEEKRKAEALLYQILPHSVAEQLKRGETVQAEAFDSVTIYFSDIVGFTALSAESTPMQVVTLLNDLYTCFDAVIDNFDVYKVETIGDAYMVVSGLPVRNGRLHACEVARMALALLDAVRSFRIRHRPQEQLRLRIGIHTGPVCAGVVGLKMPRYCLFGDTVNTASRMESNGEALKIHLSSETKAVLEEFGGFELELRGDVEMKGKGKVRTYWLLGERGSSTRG

[2] = target: T2, rNPR1-ANP complex (rat, UniProt P01160 124-151 (human entry), limits assumed); assay: FabCys affinity (Biacore per paragraph 323)
T2 construct: rNPR1 antigen in the presence of ANP; also called rNPR1 + 100 nM ANP
T2 sequence: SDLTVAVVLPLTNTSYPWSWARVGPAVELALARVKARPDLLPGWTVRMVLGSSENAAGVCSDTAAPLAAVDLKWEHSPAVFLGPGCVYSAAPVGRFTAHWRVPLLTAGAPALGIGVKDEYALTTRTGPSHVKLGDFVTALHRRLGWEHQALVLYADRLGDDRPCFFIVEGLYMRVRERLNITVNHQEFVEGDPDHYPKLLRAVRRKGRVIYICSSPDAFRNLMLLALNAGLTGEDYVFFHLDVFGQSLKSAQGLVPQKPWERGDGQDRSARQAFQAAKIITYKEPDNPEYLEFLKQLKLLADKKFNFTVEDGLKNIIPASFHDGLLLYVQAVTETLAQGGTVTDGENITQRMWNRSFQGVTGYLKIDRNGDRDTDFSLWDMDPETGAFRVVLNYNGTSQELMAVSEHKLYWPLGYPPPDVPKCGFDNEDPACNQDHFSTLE
T2 sequence (peptide): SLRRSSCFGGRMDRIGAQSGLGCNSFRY

[3] = target: T3, hNPR1-ANP complex (human, UniProt P01160 124-151, limits assumed); assay: FabCys affinity (Biacore per paragraph 323)
T3 construct: hNPR1 antigen in the presence of ANP; also called hNPR1 + 100 nM ANP
T3 sequence: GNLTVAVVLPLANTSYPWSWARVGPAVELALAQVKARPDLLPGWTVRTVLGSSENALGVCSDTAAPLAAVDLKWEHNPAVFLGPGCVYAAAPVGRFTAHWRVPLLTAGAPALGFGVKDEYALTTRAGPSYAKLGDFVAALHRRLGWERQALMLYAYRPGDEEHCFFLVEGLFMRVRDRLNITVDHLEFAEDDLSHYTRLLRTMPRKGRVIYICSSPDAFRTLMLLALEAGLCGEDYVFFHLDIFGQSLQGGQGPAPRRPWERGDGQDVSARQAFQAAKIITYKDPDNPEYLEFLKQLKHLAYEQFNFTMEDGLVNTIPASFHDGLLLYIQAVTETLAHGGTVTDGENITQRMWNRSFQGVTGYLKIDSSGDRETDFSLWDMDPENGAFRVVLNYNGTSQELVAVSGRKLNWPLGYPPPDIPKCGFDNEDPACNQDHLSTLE
T3 sequence (peptide): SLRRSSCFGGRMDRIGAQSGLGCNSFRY

[4] = target: T4, rat NPR1 (rNPR1) (rat, UniProt P18910 29-469, limits assumed); assay: FabCys affinity (Biacore per paragraph 323)
T4 construct: Soluble antigen
T4 sequence: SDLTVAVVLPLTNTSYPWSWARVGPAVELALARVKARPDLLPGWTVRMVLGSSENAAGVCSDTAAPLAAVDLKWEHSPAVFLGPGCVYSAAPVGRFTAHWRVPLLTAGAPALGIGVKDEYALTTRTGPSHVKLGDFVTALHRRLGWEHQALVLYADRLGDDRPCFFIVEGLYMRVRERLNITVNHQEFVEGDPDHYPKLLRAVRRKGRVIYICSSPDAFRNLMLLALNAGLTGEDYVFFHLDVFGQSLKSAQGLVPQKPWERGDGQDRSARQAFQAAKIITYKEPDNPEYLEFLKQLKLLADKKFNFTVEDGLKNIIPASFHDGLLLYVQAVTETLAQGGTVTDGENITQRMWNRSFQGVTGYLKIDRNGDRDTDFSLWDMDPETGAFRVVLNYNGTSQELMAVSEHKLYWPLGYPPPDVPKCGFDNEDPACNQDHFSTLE

[5] = target: T5, human Natriuretic Peptide Receptor 1 (hNPR1) (human, UniProt P16066 33-473, limits assumed); assay: FabCys affinity (Biacore per paragraph 323)
T5 construct: pannings used NPR1-hFc; also called NPR1-hFc
T5 sequence: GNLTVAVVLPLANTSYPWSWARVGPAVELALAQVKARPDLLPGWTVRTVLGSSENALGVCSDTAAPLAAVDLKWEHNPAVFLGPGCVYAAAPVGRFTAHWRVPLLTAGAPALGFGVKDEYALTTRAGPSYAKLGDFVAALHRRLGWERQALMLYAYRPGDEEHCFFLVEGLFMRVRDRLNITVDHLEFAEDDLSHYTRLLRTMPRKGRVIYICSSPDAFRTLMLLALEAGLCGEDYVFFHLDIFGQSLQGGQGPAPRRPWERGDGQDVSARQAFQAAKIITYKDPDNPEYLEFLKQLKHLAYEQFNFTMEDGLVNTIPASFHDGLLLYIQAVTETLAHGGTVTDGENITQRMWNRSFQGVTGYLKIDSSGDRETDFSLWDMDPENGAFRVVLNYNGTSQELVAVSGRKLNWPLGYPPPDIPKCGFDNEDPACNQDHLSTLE

[6] = target: T2, rNPR1-ANP complex; assay: FabCys, parental value by Biacore, as in Table 5
[7] = target: T3, hNPR1-ANP complex; assay: FabCys, parental value by Biacore, as in Table 5
[8] = target: T4, rat NPR1 (rNPR1); assay: FabCys, parental value by Biacore, as in Table 5
[9] = target: T5, human Natriuretic Peptide Receptor 1 …; assay: FabCys, parental value by Biacore, as in Table 5
[10] = target: T6, human NPR3 (counter target) (human, UniProt P17342 27-481, limits assumed); assay: FabCys affinity determination
T6 construct: Pannings used hNPR3-hFc; also called hNPR3; hNPR3-hFc
T6 sequence (looked up): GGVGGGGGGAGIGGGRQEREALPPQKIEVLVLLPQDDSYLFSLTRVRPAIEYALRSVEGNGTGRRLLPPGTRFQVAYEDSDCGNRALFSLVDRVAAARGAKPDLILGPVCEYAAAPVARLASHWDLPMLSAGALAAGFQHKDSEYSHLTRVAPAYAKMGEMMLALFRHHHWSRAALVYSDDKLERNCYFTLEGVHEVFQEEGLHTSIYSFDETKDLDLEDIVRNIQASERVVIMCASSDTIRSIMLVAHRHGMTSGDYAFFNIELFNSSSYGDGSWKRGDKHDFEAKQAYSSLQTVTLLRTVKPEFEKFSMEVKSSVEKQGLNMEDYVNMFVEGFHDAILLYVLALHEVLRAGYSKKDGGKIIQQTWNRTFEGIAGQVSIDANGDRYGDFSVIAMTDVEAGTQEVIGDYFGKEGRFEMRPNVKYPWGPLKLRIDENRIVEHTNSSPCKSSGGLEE

[11] = target: T7, human NPR3 in the presence of ANP (human, UniProt P17342 27-481; P01160 124-151, limits assumed); assay: FabCys affinity determination
T7 construct: also called hNPR3 + 100 nM ANP
T7 sequence (looked up): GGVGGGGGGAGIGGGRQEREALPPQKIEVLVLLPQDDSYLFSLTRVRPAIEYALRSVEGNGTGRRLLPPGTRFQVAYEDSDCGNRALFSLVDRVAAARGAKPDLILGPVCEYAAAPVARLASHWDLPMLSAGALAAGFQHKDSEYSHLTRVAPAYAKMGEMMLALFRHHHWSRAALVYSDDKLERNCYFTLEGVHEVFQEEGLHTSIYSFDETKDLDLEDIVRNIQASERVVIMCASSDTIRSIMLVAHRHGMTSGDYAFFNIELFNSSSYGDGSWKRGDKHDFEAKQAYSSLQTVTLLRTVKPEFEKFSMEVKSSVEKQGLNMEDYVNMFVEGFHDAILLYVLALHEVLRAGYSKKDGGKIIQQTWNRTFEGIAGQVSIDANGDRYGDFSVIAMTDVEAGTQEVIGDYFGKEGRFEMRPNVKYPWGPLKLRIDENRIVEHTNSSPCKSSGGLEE
T7 sequence (peptide, looked up): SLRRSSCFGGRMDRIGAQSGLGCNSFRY

[12] = target: T6, human NPR3 (counter target); assay: ELISA, IgG titrated on coated antigen, fluorescence [Cont.]
[13] = target: T8, human NPR1 on CHO-K1 cells in the presence of ANP (human, UniProt P01160 124-151); assay: flow cytometry, hNPR1 CHO-K1 cells, IgG
T8 construct: also called hNPR1 CHO K1 + 100 nM ANP
T8 sequence: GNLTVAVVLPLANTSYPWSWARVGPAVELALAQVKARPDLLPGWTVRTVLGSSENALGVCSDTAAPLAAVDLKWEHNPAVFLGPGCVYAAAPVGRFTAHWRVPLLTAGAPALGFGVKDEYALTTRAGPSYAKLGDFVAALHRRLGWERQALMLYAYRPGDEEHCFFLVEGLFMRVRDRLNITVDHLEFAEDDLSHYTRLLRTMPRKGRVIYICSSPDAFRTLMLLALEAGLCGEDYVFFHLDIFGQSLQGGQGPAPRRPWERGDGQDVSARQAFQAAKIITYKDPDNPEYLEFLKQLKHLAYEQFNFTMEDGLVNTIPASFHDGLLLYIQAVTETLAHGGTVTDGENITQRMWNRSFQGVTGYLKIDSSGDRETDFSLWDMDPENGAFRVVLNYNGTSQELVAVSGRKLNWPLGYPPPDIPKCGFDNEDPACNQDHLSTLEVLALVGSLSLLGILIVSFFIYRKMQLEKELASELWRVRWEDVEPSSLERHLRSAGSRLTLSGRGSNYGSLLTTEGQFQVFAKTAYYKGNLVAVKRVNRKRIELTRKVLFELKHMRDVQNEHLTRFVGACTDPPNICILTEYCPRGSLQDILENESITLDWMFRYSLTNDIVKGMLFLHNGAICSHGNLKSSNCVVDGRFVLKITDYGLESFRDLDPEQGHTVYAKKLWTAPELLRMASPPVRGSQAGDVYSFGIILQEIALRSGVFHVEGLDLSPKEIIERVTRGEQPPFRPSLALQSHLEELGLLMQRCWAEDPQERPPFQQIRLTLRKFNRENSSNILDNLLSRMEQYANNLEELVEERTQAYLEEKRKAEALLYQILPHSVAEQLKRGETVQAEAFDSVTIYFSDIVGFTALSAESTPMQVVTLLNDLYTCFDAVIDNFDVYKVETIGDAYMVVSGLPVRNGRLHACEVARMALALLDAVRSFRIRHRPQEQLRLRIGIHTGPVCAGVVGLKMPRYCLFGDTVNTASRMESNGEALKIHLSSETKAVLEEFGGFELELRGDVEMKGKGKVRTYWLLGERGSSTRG
T8 sequence (peptide): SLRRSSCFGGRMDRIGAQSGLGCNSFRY

[14] = target: T7, human NPR3 in the presence of ANP; assay: ELISA, IgG titrated on coated antigen with ANP (250 fold molar excess), fluorescence [Cont.]
[15] = target: T3, hNPR1-ANP complex; assay: ELISA, IgG
[16] = target: T5, human Natriuretic Peptide Receptor 1 …; assay: ELISA, IgG

cGMP conc [nM] at 2 µM FabCys, +0.075 nM ANP [1]	cGMP conc [nM] at 2 µM FabCys, without ANP [1]	Kd [2]	Kd [3]	Kd [4]	Kd [5]	Kd [6]	Kd [7]	Kd [8]	Kd [9]	binding result [10]	binding result [11]	binding result [12]	flow cytometry S/BG at 2 µM IgG [13]	binding result [14]	EC50 [15]	EC50 [16]	Binder
108 nM	32 nM	1 nM	0.1 nM	2600 nM	1000 nM	1 nM	0.1 nM	2600 nM	1000 nM	no binding	no binding						B1
												no binding (tested: 1000 nM)	214 S/BG	no binding (tested: 1000 nM)	1.4 nM	42.7 nM	B2
